Substitutions are numbered along the chain they refer to. Names may count otherwise.
T1: Nab2-N (residues 1–105 of Nab2), untagged (S. cerevisiae, UniProt P32505 1-105)
T1 sequence (looked up): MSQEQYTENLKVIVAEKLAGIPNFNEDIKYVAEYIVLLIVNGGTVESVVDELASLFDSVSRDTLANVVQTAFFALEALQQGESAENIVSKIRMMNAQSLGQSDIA

T2: His6-S-Tag-Gfd1 wild type (S. cerevisiae, UniProt Q04839 1-188)
T2 sequence (looked up): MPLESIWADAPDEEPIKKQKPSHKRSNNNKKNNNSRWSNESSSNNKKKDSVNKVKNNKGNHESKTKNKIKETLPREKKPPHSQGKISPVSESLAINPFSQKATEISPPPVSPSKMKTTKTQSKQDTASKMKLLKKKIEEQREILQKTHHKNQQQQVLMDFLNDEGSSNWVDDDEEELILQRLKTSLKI

B1: Gfd1 122–151 (fragment of Gfd1 released from GST-TEV-Gfd1 122–151 by TEV protease) (peptide, UniProt Q04839 122-151, looked up)
chain: SKQDTASKMKLLKKKIEEQREILQKTHHKN
B2: GST-Nab2-N-WT (residues 1–97) (domain or fragment, S. cerevisiae, UniProt P32505 1-97, looked up)
chain: MSQEQYTENLKVIVAEKLAGIPNFNEDIKYVAEYIVLLIVNGGTVESVVDELASLFDSVSRDTLANVVQTAFFALEALQQGESAENIVSKIRMMNAQ
B3: GST-Nab2-N-L55W (residues 1–97) (domain or fragment, S. cerevisiae, UniProt P32505 1-97, looked up)
chain: B2 chain with L55W
B4: GST-Nab2-N-F56D (residues 1–97) (domain or fragment, S. cerevisiae, UniProt P32505 1-97, looked up)
chain: B2 chain with F56D

Key:
[1] = target: T1, Nab2-N (residues 1–105 of Nab2), …; experiment: crystal structure
[2] = target: T2, His6-S-Tag-Gfd1 wild type; experiment: pull-down

Row | Binder | binding result [1] | binding result [2]
1 | B1 | binds | 
2 | B2 |  | binds
3 | B3 |  | binds
4 | B4 |  | binds
